# US20240150440A1 (LUMEN BIOSCIENCE, published 2024)
# B1: PP1149 MBP-5HVZ-PAPA-R5a-E5-H6 (VHH)
# VHH: QVQLVESGGGLVQPGGSLRLSCAASGYDFDILRMAWFRQAPGKEREMVAAITSAESVNYEDSVKGRFTISRDNAKNTVYLQMNSLKPEDTAVYYCATYDYTDDYGYASWGQGTQVTVSS
# notes: Form: Dimer
# B2: PP1148 MBP-5HVZ-PAPA-R5a-C5-H6 (VHH)
# VHH: QVQLVESGGGLVQPGGSLRLSCAASGDIFSINALHWFRQAPGKQREEVAAITSGGSTGYADSVKGRFTISRDNAKNTVYLQMNSLKPEDTAVYYCAAQQARGGLDSDYWGQGTQVTVSS
# notes: Form: Dimer
# B3: PP1136 MBP-4B0F-PAPA-R5a-C5-H6 (VHH)
# VHH: B2 VHH
# notes: Form: Heptamer
# B4: PP834 MBP-R5C-G2-H6 (VHH)
# VHH: QVQLVESGGGLVQPGGSLRLSCAASGSATSINRMAWVRQAPGKEREWVAVIDSGGYTYYADSVKGRFTISRDNAKNTVYLQMNSLKPEDTAVYYCNAVPVTTDKTPMYQYWGQGTQVTVSS
# notes: Form: Monomer
# B5: PP935 MBP-5HVZ-S3b-E11-H6 (VHH)
# VHH: QVQLVESGGGLVQPGGSLRLSCAASGDIYSQSAMAWYRQAPGKEREFVAAITTTGSRSYKDSVKGRFTISRDNAKNTVYLQMNSLKPEDTAVYYCAAFAVRSSSVSDAYDYWGQGTQVTVSS
# notes: Form: Dimer
# B6: PP1143 MBP-5HVZ-PAPA-R2b-D5-H6 (VHH)
# VHH: QVQLVESGGGLVQPGGSLRLSCAASGYADEINMVHWYRQAPGKGREFVAAIASGGSTFYADSVKGRFTISRDNAKNTVYLQMNSLKPEDTAVYYCAAIPRPSLSYAHDYAYWGQGTQVTVSS
# notes: Form: Dimer
# B7: PP1131 MBP-4B0F-PAPA-R2b-D5-H6 (VHH)
# VHH: B6 VHH
# notes: Form: Heptamer
# B8: PP1155 MPB-scTRP-PAPA-R2b-D5-H6 (VHH)
# VHH: B6 VHH
# notes: Form: Trimer
# B9: PP837 MBP-R5D-B2-H6 (VHH)
# VHH: QVQLVESGGGLVQPGGSLRLSCAASGSIWSIAFMSWYRQAPGKGREWVAAITTGNDEAYADSVKGRFTISRDNAKNTVYLQMNSLKPEDTAVYYCAANTYERTPDGRTFSYWGQGTQVTVSS
# notes: Form: Monomer
# B10: PP848 MBP-R5E-G2-H6 (VHH)
# VHH: QVQLVESGGGLVQPGGSLRLSCAASGTIKSINAMHWFRQAPGKAREFVASIGSNGAKSYSDSVKGRFTISRDNAKNTVYLQMNSLKPEDTAVYYCTALITVAESDDYDYWGQGTQVTVSS
# notes: Form: Monomer
# B11: PP1147 MBP-5HVZ-PAPA-R5a-B7-H6 (VHH)
# VHH: QVQLVESGGGLVQPGGSLRLSCAASGAFFSYGAIHWFRQAPGKQREEVAAITSGGSTGYADSVKGRFTISRDNAKNTVYLQMNSLKPEDTAVYYCNAGVVWLPSNAAYNLWGQGTQVTVSS
# notes: Form: Dimer
# B12: PP1151 MBP-5HVZ-PAPA-R5d-B5-H6 (VHH)
# VHH: QVQLVESGGGLVQPGGSLRLSCAASGSRDSIVAMHWYRQAPGKGREGVAGITSRWVTYYADSVKGRFTISRDNAKNTVYLQMNSLKPEDTAVYYCNAPVYYDTEWYDIWGQGTQVTVSS
# notes: Form: Dimer
# B13: PP847 MBP-R5E-D1-H6 (VHH)
# VHH: QVQLVESGGGLVQPGGSLRLSCAASGFEFSTSAMHWYRQAPGKQREWVARITSGGSDNYGDSVKGRFTISRDNAKNTVYLQMNSLKPEDTAVYYCAAYVGTDNYGYDYWGQGTQVTVSS
# notes: Form: Monomer
# B14: PP1152 MBP-5HVZ-PAPA-R5d-B6-H6 (VHH)
# VHH: QVQLVESGGGLVQPGGSLRLSCAASGRILAANIVHWYRQAPGKEREGVAGITSGGGSYYADSVKGRFTISRDNAKNTVYLQMNSLKPEDTAVYYCNALGLGQSSLYRSADPYDSWGQGTQVTVSS
# notes: Form: Dimer
# B15: PP1100 MBP-5HVZ-PAPA-RN-14-H6 (VHH)
# VHH: QVQLVESGGGLVQPGGSLRLSCAASGENFSGNLVHWFRQAPGKAREGVATVTSTGSGYYADSVKGRFTISRDNAKNTVYLQMNSLKPEDTAVYYCAAKHQKGEIPYYDWGQGTQVTVSS
# notes: Form: Dimer
# B16: PP1097 MBP-5HVZ-PAPA-RN-5-H6 (VHH)
# VHH: QVQLVESGGGLVQPGGSLRLSCAASGSSFRILAMHWYRQAPGKNREWVAVITSNGNTYYADSVKGRFTISRDNAKNTVYLQMNSLKPEDTAVYYCNADTLDLDDGATYNYWGQGTQVTVSS
# B17: PP831 MBP-R5C-F3-H6 (VHH)
# VHH: QVQLVESGGGLVQPGGSLRLSCAASGTIPSINYTAWYRQAPGKQRELVASLTSGDNRYYTDSVKGRFTISRDNAKNTVYLQMNSLKPEDTAVYYCNAKTVGSSYRDSYNYWGQGTQVTVSS
# notes: Form: Monomer
# B18: MBP-5HVZ-R5D-B5-H6 (VHH)
# VHH: B12 VHH
# notes: dimer
# B19: MBP-5HVZ-R5D-B6-H6 (VHH)
# VHH: B14 VHH
# notes: dimer
# B20: MBP-R2B-D5-H6 (VHH)
# VHH: B6 VHH
# notes: monomer
# B21: dimeric VHH (VHH-5HVZ-MBP) R2B-E6 (VHH)
# VHH: QVQLVESGGGLVQPGGSLRLSCAASGGVTRGNAMAWYRQAPGKQREIVAAIDNGGSHAYGDSVKGRFTISRDNAKNTVYLQMNSLKPEDTAVYYCAVFPDHDSEQASIDRVYWGQGTQVTVSS
# Biological target: T1, SARS-CoV-2 spike protein on pseudotyped lentivirus (Wuhan Reference Pseudovirus) (SARS-CoV-2, UniProt P0DTC2 14-1273)
# Assay: cell-based or functional assay
row,Binder,Pseudovirus inhibition IC50 [Cont. 2] [nM]
1,B1,74.7
2,B2,4.7
3,B3,0.35

# Biological target: T1, SARS-CoV-2 spike protein on pseudotyped …
# Assay: cell-based or functional assay
# Remark: another data set of the same source
row,Binder,infectivity % under 10 ug/mL VHH treatment [%]
1,B4,89.2
2,B5,48.9
3,B6,0.09
4,B7,-0.01
5,B8,0.01
6,B9,77.6
7,B10,81.9
8,B11,1.79
9,B12,35.6
10,B1,25.5
11,B2,5.95
12,B3,1.53
13,B13,77.1
14,B14,4.64
15,B15,17.2
16,B16,18.6
17,B17,81.2

# Biological target: T1, SARS-CoV-2 spike protein on pseudotyped …
# Assay: cell-based or functional assay
# Remark: another data set of the same source
row,Binder,Pseudovirus inhibition IC50 [Cont. 8] [nM]
1,B5,68.4
2,B15,13.9
3,B16,54.5

# Biological target: T2, SARS-CoV-2 Delta Variant RBD (SARS-CoV-2 Delta variant)
# T2 construct: domain: RBD; coated on ELISA plates
# Assay: ELISA, RBD coated
row,Binder,EC50 [nM]
1,B5,151
2,B11,0.49
3,B2,0.22
4,B15,46.5
5,B16,244

# Biological target: T3, SARS-CoV-2 Gamma Variant RBD (SARS-CoV-2 Gamma variant)
# T3 construct: domain: RBD; coated on ELISA plates
# Assay: ELISA, RBD coated
row,Binder,EC50 [nM]
1,B5,167
2,B1,134
3,B2,9.06
4,B16,58.6

# Biological target: T4, SARS-CoV-2 Beta Variant RBD (SARS-CoV-2 Beta variant)
# T4 construct: domain: RBD; coated on ELISA plates
# Assay: ELISA, RBD coated
row,Binder,EC50 [nM]
1,B5,343
2,B1,58
3,B2,30.5
4,B16,95.4

# Biological target: T5, SARS-CoV-2 Alpha Variant RBD (SARS-CoV-2 Alpha variant)
# T5 construct: domain: RBD; coated on ELISA plates
# Assay: ELISA, RBD coated
row,Binder,EC50 [nM]
1,B5,0.47
2,B11,0.33
3,B1,3.01
4,B2,0.33
5,B15,0.35
6,B16,0.3

# Biological target: T6, recombinant SARS-CoV-2 RBD with C-terminal AviTag (SARS-CoV-2, UniProt P0DTC2 319-541)
# Assay: BLI, biotinylated RBD on streptavidin biosensors; OR: over-range [Cont. 4]
row,Binder,Kd [nM]
1,B4,~2120
2,B9,~2350
3,B17,~5370

# Biological target: T1, SARS-CoV-2 spike protein on pseudotyped …
# Assay: cell-based or functional assay
# Remark: another data set of the same source
row,Binder,Pseudovirus inhibition IC50 [Cont. 4] [nM]
1,B12,43.7
2,B18,3.25
3,B14,0.85
4,B19,3.26

# Biological target: T1, SARS-CoV-2 spike protein on pseudotyped …
# Assay: cell-based or functional assay
# Remark: another data set of the same source
row,Binder,Pseudovirus inhibition IC50 [nM]
1,B6,0.6
2,B7,0.89
3,B8,1.9
4,B20,176
5,B21,358

# Biological target: T6, recombinant SARS-CoV-2 RBD with …
# Assay: ELISA, competition with coated ACE2-Fc for RBD [Cont. 4]
row,Binder,IC50 [nM]
1,B4,184
2,B9,3.7
3,B18,53.7
4,B19,15.7
5,B17,151

# Biological target: T1, SARS-CoV-2 spike protein on pseudotyped …
# Assay: cell-based or functional assay
# Remark: another data set of the same source
row,Binder,Pseudovirus inhibition IC50 [Cont. 6] [nM]
1,B11,0.44

# Biological target: T6, recombinant SARS-CoV-2 RBD with …
# Assay: ELISA, competition with coated ACE2-Fc for RBD [Cont. 5]
row,Binder,IC50 [nM]
1,B10,2.1
2,B13,2.9

# Biological target: SARS-CoV-2 Gamma Variant spike protein on pseudotyped lentivirus (SARS-CoV-2 Gamma variant)
# Assay: cell-based or functional assay
row,Binder,Pseudovirus neutralization IC50 [nM]
1,B6,3.13

# Biological target: SARS-CoV-2 Delta Variant spike protein on pseudotyped lentivirus (SARS-CoV-2 Delta variant)
# Assay: cell-based or functional assay
row,Binder,Pseudovirus neutralization IC50 [nM]
1,B11,1.13
2,B2,0.53

# Biological target: T1, SARS-CoV-2 spike protein on pseudotyped …
# Assay: cell-based or functional assay
# Remark: another data set of the same source
row,Binder,Pseudovirus neutralization IC50 [nM]
1,B5,34.2
2,B6,0.301
3,B7,0.93
4,B8,0.634
5,B11,12.3
6,B12,15.3
7,B1,37.3
8,B2,15.7
9,B3,0.05
10,B14,3.87
11,B15,6.95
12,B16,27.3
